Test results published in US20140235701, “NGF APTAMER AND APPLICATION THEREOF” (RIBOMIC INC., published 2014).

T1: NT-4 (neurotrophin-4) (Homo sapiens, UniProt P34130 P34130:81-210)
T1 sequence: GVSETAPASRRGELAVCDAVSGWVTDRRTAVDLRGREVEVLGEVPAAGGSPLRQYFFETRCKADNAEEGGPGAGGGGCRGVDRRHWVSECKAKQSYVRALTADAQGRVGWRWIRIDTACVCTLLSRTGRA

B1: SEQ ID NO: 23 (ssRNA)
RNA: GGGAGAACUUCGACCAGAAGUGGCACAUCCUGCUGCGUAGUUUCCGUCUGCGUGGCUGUUAUGUGCGCAUACAUGGAUCCUC
modifications: 2'-F C/U, dA, 2'-OH G
B2: SEQ ID NO: 26 (ssRNA)
RNA: GGGAGAACUUCGACCAGAAGUGGCACAUCCUGCUGCGUAGUUUCCGUCUUCGCGGCUGUUAUGUGCGCAUACAUGGAUCCUC
modifications: 2'-F C/U, dA, 2'-OH G
B3: SEQ ID NO: 30 (ssRNA)
RNA: GGGAGAACUUCGACCAGAAGUUGGCACAUCCUGCUGCGAAGGUUCCGUCUUCGUGGCUGUACUAUGUGCGCAUACAUGGAUCCUC
modifications: 2'-F C/U, dA, 2'-OH G
B4: SEQ ID NO: 36 (ssRNA)
RNA: GGGAGAACUUCGACCAGAAGGUACGUUAGUACGUUUGCAUAUGUACAACCUUGCAUACGAUACGUAGGUUAUGUGCGCAUACAUGGAUCCUC
modifications: 2'-F C/U, dA, 2'-OH G
B5: SEQ ID NO: 22 (ssRNA)
RNA: GGGAGAACUUCGACCAGAAGUUGGCACAUCCUGCUGCGUAGUUUCCGUCUUCGUGGCUGUUAUGUGCGCAUACAUGGAUCCUC
modifications: 2'-F C/U, dA, 2'-OH G
B6: SEQ ID NO: 34 (ssRNA)
RNA: GGGAGAACUUCGACCAGAAGUUGGCACAUCCUGCCGCGUAGUUUCCGUCUGCGUGGCUGUUAUGUGCGCAUACAUGGAUCCUC
modifications: 2'-F C/U, dA, 2'-OH G
B7: SEQ ID NO: 37 (ssRNA)
RNA: GGGAGAACUUCGACCAGAAGUUGGCACAUCCUGCUACGUAGUUUCCUUCUUCGUGGCUGUUAUGUGCGCAUACAUGGAUCCUC
modifications: 2'-F C/U, dA, 2'-OH G
B8: SEQ ID NO: 28 (ssRNA)
RNA: GGGAGAACUUCGACCAGAAGUUGGCACAUCCUGCUGCGUAGUUUCCAUCUGCGUGGCUGUUAUGUGCGCAUACAUGGAUCCUC
modifications: 2'-F C/U, dA, 2'-OH G
B9: SEQ ID NO: 27 (ssRNA)
RNA: GGGAGAACUUCGACCAGAAGUUGGCACAUCCUGCUGCGCAGUUUCCGUCUGCGUGGCUGUUAUGUGCGCAUACAUGGAUCCUC
modifications: 2'-F C/U, dA, 2'-OH G
B10: SEQ ID NO: 33 (ssRNA)
RNA: GGGAGAACUUCGACCAGAAGUUGGCACAUCCUGCCGCGUAGUUUCAAUCUUGGUGGCGUGUAUGUGCGCAUACAUGGAUCCUC
modifications: 2'-F C/U, dA, 2'-OH G
B11: SEQ ID NO: 25 (ssRNA)
RNA: GGGAGAACUUCGACCAGAAGUUGGCACAUCCUGCUGCGCAGUUUCCGUCUACGUGGCUGUUAUGUGCGCAUACAUGGAUCCUC
modifications: 2'-F C/U, dA, 2'-OH G
B12: SEQ ID NO: 32 (ssRNA)
RNA: GGGAGAACUUCGACCAGAAGUUGGCACAUCCUGCUGCGGAGUUUCCUUCUUCGUGGCUGUUAUGUGCGCAUACAUGGAUCCUC
modifications: 2'-F C/U, dA, 2'-OH G
B13: SEQ ID NO: 24 (ssRNA)
RNA: GGGAGAACUUCGACCAGAAGUUGGCACAUCCUGCUGCGAAGUUUCCGUCUCCGUGGCUGUUAUGUGCGCAUACAUGGAUCCUC
modifications: 2'-F C/U, dA, 2'-OH G
B14: SEQ ID NO: 31 (ssRNA)
RNA: GGGAGAACUUCGACCAGAAGUUGGCACAUCCUGCUGCGCAGUUUCCCUCUGCGUGGCUGUUAUGUGCGCAUACAUGGAUCCUC
modifications: 2'-F C/U, dA, 2'-OH G
B15: SEQ ID NO: 35 (ssRNA)
RNA: GGGAGAACUUCGACCAGAAGUUGGCACAUCCUGUUGCGUAGUUUCCUUCUACGUGGCUGUUAUGUGCGCAUACAUGGAUCCUC
modifications: 2'-F C/U, dA, 2'-OH G
B16: SEQ ID NO: 29 (ssRNA)
RNA: GGGAGAACUUCGACCAGAAGUUCACAUCCUGCUGCGAAGUUUCCUUCUUCGUGGCUGUUAUGUGCGCAUACAUGGAUCCUC
modifications: 2'-F C/U, dA, 2'-OH G
B17: SEQ ID NO: 56 (ssRNA)
RNA: GGGAGAACUUCGACCAGAAGUUGCACAUCCUGCUGUGUAGUUUCCGUCUGCAUGGUUGUUAUGUGCGCAUACAUGGAUCCUC
modifications: 2'-F C/U, dA, 2'-OH G
B18: SEQ ID NO: 48 (ssRNA)
RNA: GGGAGAACUUCGACCAGAAGUUGGCACAUCCUGCUGCGGAGUUUCCGUCUCGGUGGCUGUUAUGUGCGCAUACAUGGAUCCUC
modifications: 2'-F C/U, dA, 2'-OH G
B19: SEQ ID NO: 58 (ssRNA)
RNA: GGGAGAACUUCGACCAGAAGUUGACACAUCCUGCUGCGUAGUUUCCGUCUGCGUGGUUGUUAUGUGCGCAUACAUGGAUCCUC
modifications: 2'-F C/U, dA, 2'-OH G
B20: SEQ ID NO: 53 (ssRNA)
RNA: GGGAGAACUUCGACCAGAAGUUUGCACAUCCUGCUGCGCAGUUUCCGUCUACGUGGCUGUUAUGUGCGCAUACAUGGAUCCUC
modifications: 2'-F C/U, dA, 2'-OH G
B21: SEQ ID NO: 49 (ssRNA)
RNA: GGGAGAACUUCGACCAGAAGUUUGCACAUCCUGCUGCGUAGUUUCCGUCUACGUGGCUGUUAUGUGCGCAUACAUGGAUCCUC
modifications: 2'-F C/U, dA, 2'-OH G
B22: SEQ ID NO: 51 (ssRNA)
RNA: GGGAGAACUUCGACCAGAAGUUGGCACACCCUGCUACGGAGUUUCCGUCUCGGUGGCUGUUAUGUGCGCAUACAUGGAUCCUC
modifications: 2'-F C/U, dA, 2'-OH G
B23: SEQ ID NO: 50 (ssRNA)
RNA: GGGAGAACUUCGACCAGAAGCUGGCACAUCCUGUUGCGUAGUUUCCGUCUACGUGACUGUUAUGUGCGCAUACAUGGAUCCUC
modifications: 2'-F C/U, dA, 2'-OH G
B24: SEQ ID NO: 55 (ssRNA)
RNA: GGGAGAACUUCGACCAGAAGUUGGCACAUCCUGUUGCGUAGUUUCCGUCUGCGUGGCUGUUAUGUGCGCAUACAUGGAUCCUC
modifications: 2'-F C/U, dA, 2'-OH G
B25: SEQ ID NO: 60 (ssRNA)
RNA: GGGAGAACUUCGACCAGAAGUUGGCACAUCCUGCUGCAGAGUUUCCGUCUCGGUGGCUGUUAUGUGCGCAUACAUGGAUCCUC
modifications: 2'-F C/U, dA, 2'-OH G
B26: SEQ ID NO: 59 (ssRNA)
RNA: GGGAGAACUUCGACCAGAAGUUUGCACAUCCUGCUGCGUAGUUUCCUUCUGCGUGGUUGUUAUGUGCGCAUACAUGGAUCCUC
modifications: 2'-F C/U, dA, 2'-OH G
B27: SEQ ID NO: 57 (ssRNA)
RNA: GGGAGAACUUCGACCAGAAGUAGGCACGUCCUGCUGCAUAGUUUCCGUCUGUGUGGCUGUUAUGUGCGCAUACAUGGAUCCUC
modifications: 2'-F C/U, dA, 2'-OH G
B28: SEQ ID NO: 54 (ssRNA)
RNA: GGGAGAACUUCGACCAGAAGUUGGCACAUCCUGAUGCGUAGUUUCCGUCUGCGUGUCUGUUAUGUGCGCAUACAUGGAUCCUC
modifications: 2'-F C/U, dA, 2'-OH G
B29: SEQ ID NO: 52 (ssRNA)
RNA: GGGAGAACUUCGACCAGAAGUUGGCACAUCCUGCUGCAUAGUUUCCGUCUUUGUGGCUGUUAUGUGCGCAUACAUGGAUCCUC
modifications: 2'-F C/U, dA, 2'-OH G

What follows are binders tested against T2, NGF (nerve growth factor) (Homo sapiens, UniProt P01138 P01138:122-241) (assay: SPR; more than 40N control). Conditions: tags: R&D Systems; chain copies: 2.
Experimental: As the measuring apparatus, BIAcore2000 manufactured by BIAcore was used and, as the sensor chip, CM5 that reacts with an amino group was used. […] For the reaction of an amino group on the protein side and a carboxyl group on the chip side, ethyl-3-carbodiimide hydrochloride and N-hydroxysuccinimide were used. After the reaction, blocking by ethanolamine-HCl was performed. The immobilized amount of NGF was set to 3,000-4,000 RU. An aptamer for analyte was prepared to 0.15 μM-0.5 μM. As a running buffer, solution A was used. Here, solution A is a mixed solution of 145 mM sodium chloride, 5.4 mM potassium chloride, 1.8 mM calcium chloride, 0.8 mM magnesium chloride, 20 mM Tris (pH 7.6), 0.05% Tween 20. As a regeneration solution, a mixed solution of 1M NaCl and 50 mM NaOH was used. NGF was immobilized on FC2, and the results of FC1 were subtracted to give a final sensorgram.
The measurement was as shown in Examples 1 and 2 and the surface plasmon resonance method was used.

T2 sequence (P01138 122-241, one chain of several): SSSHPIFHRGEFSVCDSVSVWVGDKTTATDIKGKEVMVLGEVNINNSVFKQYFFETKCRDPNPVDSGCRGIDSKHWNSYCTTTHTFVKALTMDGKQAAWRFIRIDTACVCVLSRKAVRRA

**Q.** Does B1 bind?
**A.** binds

**Q.** Does B2 bind?
**A.** binds

**Q.** Does B3 bind?
**A.** binds

**Q.** Does B4 bind?
**A.** binds

**Q.** Does B5 bind?
**A.** binds

**Q.** Does B6 bind?
**A.** binds

**Q.** Does B7 bind?
**A.** binds

**Q.** Does B8 bind?
**A.** binds

**Q.** Does B9 bind?
**A.** binds

**Q.** Does B10 bind?
**A.** binds

**Q.** Does B11 bind?
**A.** binds

**Q.** Does B12 bind?
**A.** binds

**Q.** Does B13 bind?
**A.** binds

**Q.** Does B14 bind?
**A.** binds

**Q.** Does B15 bind?
**A.** binds

**Q.** Does B16 bind?
**A.** binds

Each binder was assayed against T1, NT-4 (neurotrophin-4) (assay: cell_activity; TF-1). Conditions: tags: R&D Systems; chain copies: 2.
Description: Using TF-1 cells, whether NGF aptamer inhibits BDNF, NT-3, NT-4 was examined. Human receptor genes (TrkB, TrkC, p75) for respective neurotrophic factors were introduced into TF-1 cells (ATCC Number: CRL-2003), which is a human erythroleukemic cell line, by using a retrovirus vector to give cells that highly express these receptors stably. TF-1 cells introduced with TrkB and p75 were used for the evaluation of inhibitory activity against BDNF, TF-1 cells introduced with TrkC and p75 were used for the evaluation against NT-3, and TF-1 cells introduced with TrkB alone were used for the evaluation against NT-4. These cells were suspended in an RPMI-1640 medium containing 20% fetal bovine serum, and seeded in a white 96 well flat-bottom plate at 1000 cells (50 μL) per well. Thereto was added a mixed solution 50 μL of human BDNF (final concentration 0.074 nM) or NT-3 (final concentration 0.074 nM) or NT-4 (final concentration 0.071 nM) and the aptamer (final concentration 1 μM-0.01 nM), which had been pre-reacted at room temperature for 30 min in a serum-free RPMI-1640 medium, 3 days later, 100 μL of CellTiter-Glo reagent for CellTiter-Glo Luminescent Cell Viability Assay (manufactured by Promega) was added to each well, chemiluminescence was measured by a microplate reader. With the amount of luminescence per well obtained by the addition of BDNF or NT-3 or NT-4 alone and culture of the cells for 3 days as inhibitory activity 0%, and that of the well obtained by culture for 3 days without addition of BDNF or NT-3 or NT-4 as inhibitory activity 100%, the inhibitory activity of the aptamer was calculated from the amount of luminescence per well obtained by culturing with the addition of BDNF or NT-3 or NT-4 and the aptamer in mixture. When the inhibitory activity was 0 or below, ‘0%’ is indicated. The 50% inhibitory concentration (IC₅₀) was determined from the concentrations at two, above and below points sandwiching the 50% inhibitory activity. An IC₅₀ value indicated as “>X” means that the inhibitory activity was not more than 50% when the indicated concentration X was the maximum measured concentration. N.D. means not measured.

**Q.** With GGGUCCUGGAUAAGAGUUUCCGUCUCGUAUCCUGUUACCC (ssRNA, as 82(25) except 5' PEG80TS4 instead of idT) [SEQ ID NO: 82(55)] as the binder, how does the IC50 read?
**A.** 14.3 nM

**Q.** With GGGUCCUGGAUAAGAGUUUCCGUCUCGUAUCCUGUUACCC (ssRNA, 2'-OMe G (G8,G34 2'-OH), dA, 2'-F C/U; 5',3' idT) [SEQ ID NO: 82(1)] as the binder, how does the IC50 read?
**A.** < 100 nM

Biological target: T2, NGF (nerve growth factor)
Assay: SPR; more than 40N control
Conditions: tags: R&D Systems; chain copies: 2
Remark: another data set of the same source

**Q.** Does B17 bind?
**A.** binds

**Q.** Does B18 bind?
**A.** binds

**Q.** Does B19 bind?
**A.** binds

**Q.** Does B20 bind?
**A.** binds

**Q.** Does B21 bind?
**A.** binds

**Q.** Does B22 bind?
**A.** binds

**Q.** Does B23 bind?
**A.** binds

**Q.** Does B24 bind?
**A.** binds

**Q.** Does B25 bind?
**A.** binds

**Q.** Does B26 bind?
**A.** binds

**Q.** Does B27 bind?
**A.** binds

**Q.** Does B28 bind?
**A.** binds

**Q.** Does B29 bind?
**A.** binds
